{"source": "the DeepSol protein solubility set"}
{"assay": "soluble on expression in E. coli; label from the status in PepcDB or PDB records"}
{"sequence": "VLKLDRQTQIWNRASLESGGATPAAGDIALASLLLAHGLAMNGGVAHAIESLSQAEIAAAIDGFNYFGLTDASHVFEQRPDDSEDVEERLNMMYRTAVPNDRVLAHAFRVKLVSTPSAFAPIDHGAHV", "soluble on expression in E. coli": "not soluble"}
{"sequence": "MGSDKIHHHHHHMKLTILTDNRAAPGLTCEHGFAVLIETGGKRILFDTGQLTAIDANCRALGIDLSDIDIIVLSHGHYDHTGNLADVLRIADRATLYLHPSALIERYSIRNDKPKPIDMPETAKQAINGLPKERVVWVTEPTRLTDGAFLTGPVPRQTTFEDTGGPFFFDPDGKTPDPIEDDLSLWIEKPEGLIVLAGCCHAGIVNTLDYIESITGQKRIATLIGGMHLSAASPERLNRTVASLANRDISRLIACHCTGQAAVERFSKELPYPVEAGYAGMVVESANE", "soluble on expression in E. coli": "not soluble"}
{"sequence": "MSSEAVDATTLVIIPTYNELENLPLIVDRVRTATPDVHVLIVDDNSPDGTGERADKLAADDDHIFVLHREGKGGLCAAYMAGFQWGLERDYQVLCEMDADGSHAPEQLHLLLAEITNGADLVIGSRYVPGGRVVNWPKNRWLLSKGGNVYISVALGAGLTDMTAGYRAFRREVLEALPLDELSNAGYIFQVEIAYRAVEAGFDVREVPITFTEREIGESKLDGSFVKDSLLEVTKWGLKHRGGQAKELSKEMVGLLNYEWKHFKKRNTWLLEHHHHHH", "soluble on expression in E. coli": "not soluble"}
{"sequence": "MESKSVDTRSIYRELGATLSYNMRLGNGMEIEPWLKAAVRKEFVDDNRVKVNSDGNFVNDLSGRRGIYQAGIKASFSSTLSGHLGVGYSRGAGVESPWNAVVGVNWSF", "soluble on expression in E. coli": "not soluble"}
{"sequence": "MAHHHHHHMGSLSSSSSSSAATGAGAAASQTDAQEVTPVDSLWSPHDVCEAAVDYVLRHVNTVQYMIQSIEEITGKPFLRDRIKCLPAVPRDEASRNPTMGLTPDRVFAGYMWRSARSDCQAKDVVLLEDHIARLFNTKHATAFLKKDKGVNERAASPPTTSDAAATAASSLSTTATQSQLQRLLAGSQLPVLEQVERNIRHELVHAFDDARGAIESSDCVHQACSEIRAARLSGDCFVGQEMRKGRFNFFEGGQKCVRRRAVMAVDRNPVCRGFSERAVDTVFQKCYSDYEPFAAPIYALGSYGDSQFANGTLKL", "soluble on expression in E. coli": "not soluble"}
{"sequence": "GSGKSLLLKVILLGDGGVGKSSLMNRYVTNKFDSQAFHTIGVEFLNRDLEVDGRFVTLQIWDTAGQERFKSLRTPFYRGADCCLLTFSVDDRQSFENLGNWQKEFIYYADVKDPEHFPFVVLGNKVDKEDRQVTTEEAQTWCMENGDYPYLETSAKDDTNVTVAFEEAVRQVLAVEEQLE", "soluble on expression in E. coli": "soluble"}
{"sequence": "MSSIVEHVVLFKLNDDDVDSGKINSMVNGINELVNLDQVLHLYCGSIHRLITTTASDFTHVLHSRYRSKEDLNAYAIHPDHVRVVKESESIREDIMAVDWIAEQAPEALAPPLGSIGKITLLKLKENVMEEAKLEIMEVMKEKFEGIDQITVGENFSPGRSKDFSIGSISYFRDLGEIEAVDDQMKLQNDKIRDYVDDTIVVEFNVPSSS", "soluble on expression in E. coli": "soluble"}
{"sequence": "SGDVLWDIPTPKIIEECEHLEDGIYGIFQSTFLGASQRGVGVAQGGVFHTMWHVTRGAFLVRNGKKLIPSWASVKEDLVAYGGSWKLEGRWDGEEEVQLIAAVPGKNVVNVQTKPSLFKVRNGGEIGAVALDYPSGTSGSPIVNRNGEVIGLYGNGILVGDNSFVSAISQTEVKEEGKEELQEIPTMLKKGMTTVLDFHPGAGKTRRFLPQILAECARRRLRTLVLAPTRVVLSEMKEAFHGLDVKFHTQAFSAHGSGREVIDAMCHATLTYRMLEPTRVVNWEVIIMDEAHFLDPASIAARGWAAHRARANESATILMTATPPGTSDEFPHSNGEIEDVQTDIPSEPWNTGHDWILADKRPTAWFLPSIRAANVMAASLRKAGKSVVVLNRKTFEREYPTIKQKKPDFILATDIAEMGANLCVERVLDCRTAFKPVLVDEGRKVAIKGPLRISASSAAQRRGRIGRNPNRDGDSYYYSEPTSENNAHHVCWLEASMLLDNMEVRGGMVAPLYGVEGTKTPVSPGEMRLRDDQRKVFRELVRNCDLPVWLSWQVAKAGLKTNDRKWCFEGPEEHEILNDSGETVKCRAPGGAKKPLRPRWCDERVSSDQSALSEFIKFAEGRR", "soluble on expression in E. coli": "soluble"}
{"sequence": "MGLDIRFTGVADSSGALHDPDGLDIRGVLEHKKRAGLGSHPSGYEGMTGDELLDEAEYDCLVEATPTNIEDGEPGRSLVLKAMGDGKHVVTSNKGHLALFYSELMEAASEAGVEFMFEASVGGAMPIINLARETLASCTIESVIGILNGTTNFILSRMASEGSSYRQALIEAQELGIAETNPAQDVEGTDAACKAVIIANSILGRPCTLRDVRVEGITGITQGAIELAAQEGYLIKLIAEISGDRLEVGPRLVRMGSPYAVDGTLNMATLRTDLAGEVTAVGRGAGSLETASAMLTDTITIWRKSGLEHHHHHH", "soluble on expression in E. coli": "not soluble"}
{"sequence": "MSLPEKLPYLVELSPGRRNHFAYYNYHTYEDGSDSRDKPKLYRLQLSVTEVGTEKLDDNSIQLFGPGIQPHHCDLTNMDGVVTVTPRSMDAETYVEGQRISETTMLQSGMKVQFGASHVFKFVDPSQDHALAKRSVDGGLMVKGPRHKPGIVQETTFDLGGDIHSGTALPTSKSTTRLDSDRVSSASSTAERGMVKPMIRVEQQPDYRRQESRTQDASGPELILPASIEFRESSEDSFLSAIINYTNSSTVHFKLSPTYVLYMACRYVLSNQYRPDISPTERTHKVIAVVNKMVSMMEGVIQKQKNIAGALAFWMANASELLNFIKQDRDLSRITLDAQDVLAHLVQMAFKYLVHCLQSELNNYMPAFLDDPEENSLQRPKIDDVLHTLTGAMSLLRRCRVNAALTIQLFSQLFHFINMWLFNRLVTDPDSGLCSHYWGAIIRQQLGHIEAWAEKQGLELAADCHLSRIVQATTLLTMDKYAPDDIPNINSTCFKLNSLQLQALLQNYHCAPDEPFIPTDLIENVVTVAENTADELARSDGREVQLEEDPDLQLPFLLPEDGYSCDVVRNIPNGLQEFLDPLCQRGFCRLIPHTRSPGTWTIYFEGADYESHLLRENTELAQPLRKEPEIITVTLKKQNGMGLSIVAAKGAGQDKLGIYVKSVVKGGAADVDGRLAAGDQLLSVDGRSLVGLSQERAAELMTRTSSVVTLEVAKQGAIYHGLATLLNQPSPMMQREGHHHHHH", "soluble on expression in E. coli": "soluble"}
{"sequence": "MKRIAFVFSTAPHGTAAGREGLDALLATSALTDDLAVFFIADGVFQLLPGQKPDAVLARDYIATFKLLGLYDIEQCWVCAASLRERGLDPQTPFVVEATPLEADALRRELANYDVILRF", "soluble on expression in E. coli": "soluble"}
{"sequence": "MNVNKPTTEKKLIDLNNDIIHNFDVSIVMSFYKRYTEFRKVLPHNAPYLQRNGIEVIIVLDDPDEKSELLMLLQNYPFINWKLIINERKHAPRNHASVLNVGLKHATKKYILQIDPEVEFLTDIIWQMRDAIEKYPMHYILAMMAYVPYEQELTENNIKELDFIPWGNLMVERNHLYKLHGYDETFITWGGEDNNMRARLDMSGIKKFILPEAKTIHREKNYDPNERSKRINKHSISDWRKMNYPSEAIANKDIWGSEFNKVIYDWQDNQYAKDLCYTYLQQFIGFEIRHPAAFRKRHKKIVLCQAYNEEKLIEGFLTNMANYFDGIILLDDESTDRTWDLAIHDKIILKVKKKRSGFNDLENRNILLDLSAFFQSEWFCFMDIDERFDERFTNFSEFENNKEIHVVSFRGVYLWNDEQSYKGDIPNSNKGILTVYRMFRPIGHTHINTHKKLHFIATPYFTNTWQSNILFKDYGSMKENDRIRKYERYIQEDQQKDMSSGYDYLLNSENLYQLDKIEEYLEHHHHHH", "soluble on expression in E. coli": "not soluble"}
{"sequence": "MFENLTDRLSKTLKNISGKGRLTEDNIKDTLREVRMALLEADVALPVVRDFVNRVKEGAVGVEVSKSLTPGQEFIKIVRQQLEAVMGESNEALNLAAQPPAVILMAGLQGAGKTTSVGKLSKLLKERDKKKVLVVSADVYRPAAIKQLETLANDLGVDFFPSTPDQKPIDIANAAIDHAKKKFYDVLIVDTAGRLAIDEQMMAEIQALHKAINPVETLFVVDAMTGQDAADTAKAFGDALPLTGVILTKVDGDARGGAALSVRHITGKPIKFIGVGEKTDALEPFHPDRIASRILGMGDVLSLIEDLQRNVDQEKAEKLAKKFKEKKGFDLEDFREQLGQMKNMGGMMGMLDKLPGMSQLPADMKDKVDDRVFKQMEAIINSMTMKERQNPDLIKGSRKKRIAAGSGTQVQDVNRLLKQFTQMQKMMKKMQQGGMKGMMRNMQGLMGGGGRGGFGGGFFGR", "soluble on expression in E. coli": "not soluble"}
{"sequence": "PTNIHKIHEVQKKLQEEVSIVLIDIADIIVNPKKENGYSRDLYTLNSLIDSSISETYDNINNTLLSDTRFFLEHMDIIKSQRDILENLYSYVSQLNSTPPQAHILSAFIHKIGYTEFEAETGNLLLEELKRLMISMKNQPLPVDRTEFENRAILFLCLTELKQFLVNRKHAQML", "soluble on expression in E. coli": "soluble"}
